Laboratory results reported in the nanobody polyreactivity screen of Harvey et al. (2022).

Assay: yeast display, Sf9 membrane polyspecificity reagent, FACS + sequencing; frameworks hold sequencing errors
Procedure, shortened: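 After 36–48 hours of galactose induction, yeast (Saccharomyces cerevisiae BJ5465) displaying a synthetic nanobody library were stained at 4 °C for 1 hour with 10% biotinylated, detergent-solubilized Sf9 membrane reagent. Streptavidin microbeads enriched the stained cells before FACS sorting into low and high (top ~1%) gates on anti-HA and streptavidin fluorescence. Each clone's polyreactivity label reflects its gate of origin.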

Row | Sequence | polyreactivity (PSR sort gate)
1 | QVQLVESGGGLVQAGGSLRLSCAASGFTFRSNMGWYRQAPGKEREFVAAITKSGGSTYYADSVKGRFTISRDNAKNTVYLQMNSLKPEDTAVYYCATKVDTYVFRYYYWGQGTQVTVSS | high polyreactivity
2 | QVQLVESGGGLVQAGGSLRLSCAASGFTFRSYAMGWYRQAPGKVRELVAAISLGGTSTYYADSVKGRFTISRDNAKNTVYLPMNSLKPEDTAVYYCAARSYGHYGYWGQGTQVTVSS | high polyreactivity
3 | QVQLVESGGGLVQAGGSLRLSCAASGFTFRTNTMGWYRQAPGKERELVAAITYRGGRTYADSVKGRFTISRDNAKNTVYLQMNSLKPEDTAVYYCAARHYRGTAVDYWGQGTQVTVSS | high polyreactivity
4 | QVQLVESGGGLVQAGGSLRLSCAASGFTFRTNVMGWYRQAPGKERELVAVITRDGGSTYYADSVKGRFTISRDNAKNTVYLQMNSLKPEDTAVYYCNAAAFINFILYDYWGQGTQVTVSS | high polyreactivity
5 | QVQLVESGGGLVQAGGSLRLSCAASGFTFRTYAMGWSRQAPGKERELVAAITVSGGTYYADSVKGRFTISRDNAKNTVYLQMNSLKPEDTAVYYCAAGYWNDFDWGQGTQVTVSS | low polyreactivity
6 | QVQLVESGGGLVQAGGSLRLSCAASGFTFRTYAMGWYRQAPGKERELVAAITGRGSNTYYADSVKGRFTISRDNAKNTVYLQMNSLKPEDTAVYYCNARYYDYRVALRYDYWGQGTQVTVSS | high polyreactivity
7 | QVQLVESGGGLVQAGGSLRLSCAASGFTFRTYAMGWYRQAPGKERELVSAITGSGGRTYYADSVKGRFTISRDYAKNTVYLQMNSLKPEDTAVYYCAADYVVPWAFWTFRFDYWGQGTQVTVSS | low polyreactivity
8 | QVQLVESGGGLVQAGGSLRLSCAASGFTFRVDAMGWYRQAPGKERELVAAISVRGDSTYYADSVKGRFTISRDNAKNTVYVQMNSLKPEDTAVYYSAAAVRTISRFTFYYWGQGTQVTVSS | high polyreactivity
9 | QVQLVESGGGLVQAGGSLRLSCAASGFTFRWYTMGWYRQAPGKERELFAAITGSGCTTYYADSVKGRFTISRDNAKNTVYLQMNSLKPEDTAVYYCAVVSGSLRTRYTYYYWGLGTQVTVSS | high polyreactivity
10 | QVQLVESGGGLVQAGGSLRLSCAASGFTFRWYTMGWYRQAPGKERELVASIRYGGGSTYYADSVKGRFTISRDNAKNTVYLQMNSLKPEDTAVYYCAAESAWTSQYDYWGVGTQVTVSS | high polyreactivity
11 | QVQLVESGGGLVQAGGSLRLSCAASGFTFRWYTMVWYRQAPGKERELVAAITGSGCTTYYADSVKGRFTISRDNAKNTVYLQMNSLKPEDTAVYYCAARTATSSPSWYEYWGQGTQVTVSS | high polyreactivity
12 | QVQLVESGGGLVQAGGSLRLSCAASGFTFRYYAMGWYRQAHGKERELVASITGGGRTYYADSVKGRFTISRDNAKNTVYLQMNSLKPEDTAVYYCATLLAYRLGSGYDSWGQGTQVTVSS | high polyreactivity
13 | QVQLVESGGGLVQAGGSLRLSCAASGFTFRYYAMGWYRQAPGKEREFVAAIRRSGANTYYADSVKGRFTISRDNAKNTVYLQMNSLKPEDTAVYYCAADKNYYPYKFDYWGQGTQVTVSS | high polyreactivity
14 | QVQLVESGGGLVQAGGSLRLSCAASGFTFRYYAMGWYRQAPGKERELVAAINSGDSTNYADSVKGRFTISRDNAKNTVYLQMNSLKPEDTAVYYCATRLWKIPGAMYYWGQGTQVTVSS | high polyreactivity
15 | QVQLVESGGGLVQAGGSLRLSCAASGFTFRYYAMGWYRQAPGKERELVAAISAGGGSTYYADSVKGRFTISRDNAKNTVYLQMNSLKPEDTAGYYCAAAGARPGYDYWGQGTQVTVSS | high polyreactivity
16 | QVQLVESGGGLVQAGGSLRLSCAASGFTFRYYAMGWYRQAPGKERELVAAISARGTSTYYADSVKGRFTISRDNAKITVYLQMNSLKPEDTAVYYCAARYGLYPARGYDYWGQGTQVSVSS | high polyreactivity
17 | QVQLVESGGGLVQAGGSLRLSCAASGFTFRYYAMGWYRQAPGKERELVAAISYNGGSTYYADSVKGRFTISRDNAKNTVYLQMNSLKPEDTAVYYCAADGGRRFGYWGQGTQVTVSS | high polyreactivity
18 | QVQLVESGGGLVQAGGSLRLSCAASGFTFRYYAMGWYRQAPGKERELVAGISSRGGSTYYADSVKGRFTISRDNAKNTDYLQMNSLKTEDTAVYYCATERFLLGLGYDYWGQGTQVTVSS | high polyreactivity
19 | QVQLVESGGGLVQAGGSLRLSCAASGFTFRYYAMGWYRQAPGKERELVASITGGGRTYYADSVKGRFTISRDNAKNTVYLQMNSLKPEDTAVYYCATLLAYRLGSGYDSWGQGTQVTVSS | high polyreactivity
20 | QVQLVESGGGLVQAGGSLRLSCAASGFTFRYYVMGWYRQAPGNEREFVAAITWADGSTFYAVSVKGRFTISRDKAKNTDYLHMNSLKPEDTAVYYCAADYSRTYRAYDYWGQGTQVTVSS | low polyreactivity
21 | QVQLVESGGGLVQAGGSLRLSCAASGFTFSDHAMGWYRQAPGKERELVAAISRSRGNTHYADSVKGRFTISRDNAKNTVYLQMNSLKPEDTAVYYCNAVQGQGQYEYWGQATQVTVSS | high polyreactivity
22 | QVQLVESGGGLVQAGGSLRLSCAASGFTFSDNAMVWYRQAPGKERELVAAISEGSGITYYADSVKGRFTISRDNAKNTVTLQMNSLKPEDNAVYYCAADWLSKYDYWGQGTQVTVSS | low polyreactivity

Row | Sequence | polyreactivity (PSR sort gate)
23 | QVQLVESGGGLVQAGGSLRLSCAASGFTFSFYAMGWYIQAPGKERELVAVISKSGGRTYYADSVKGRFTISRDNAKNTVYLQMNSLKPEDTAVYYCAAKRTSTRIYTFEYWGQGTQVTVSS | high polyreactivity
24 | QVQLVESGGGLVQAGGSLRLSCAASGFTFSFYAMGWYRQAPGKERELVAAISSGGRTSYADSVKGRFTISRDNAKNTVYLQMNSLKPEDTAVYYCAASYPGRYWLYRYEYWGQGTQVTVSS | high polyreactivity
25 | QVQLVESGGGLVQAGGSLRLSCAASGFTFSFYAMGWYRQAPGKERELVAAITWSGGNTYYADSVKGRFTISRDNAKNTVDLQMNSLKPEDTAVYYCAARGPASVRYYYWGQGTQVTVSS | high polyreactivity
26 | QVQLVESGGGLVQAGGSLRLSCAASGFTFSFYAMGWYRQAPGKERELVAGISKRGGSTYYADSVKGRFTISRDNAKKTVFLQMNSLKPEDTAVYYCARSYYTNGNALKRDYWGQGTQVTVSS | high polyreactivity
27 | QVQLVESGGGLVQAGGSLRLSCAASGFTFSFYAMGWYRQAPGKERELVATISSGGSTTYADSVKGRFTISRDNAKNTVYLQMNSLKPEDTEVYYCAARYGRVRNYRYDYWGQGTQVTVSS | high polyreactivity
28 | QVQLVESGGGLVQAGGSLRLSCAASGFTFSFYAMGWYRQAPGKERELVATISSGGSTTYAVSVKGRFTISRDNAKNTVYLQMNSLKPEDTAVYYCNARPGQSGARFGYWGQGTQVTVSS | high polyreactivity
29 | QVQLVESGGGLVQAGGSLRLSCAASGFTFSFYTMGWYRQAPGKERELVAAISTSGSTYYADSVKGRFTISRDNAKNTVYLQMNSLKPEDTAVYYCAAGRWWRYFTWHGYWGQGTQVTVSS | high polyreactivity
30 | QVQLVESGGGLVQAGGSLRLSCAASGFTFSGHTMGWSRQAPGKERELVATISRTGGITYYADSVKGRFTISRDNAKNTVLLQMNSLKPEDTAVYYCNRRYYYFVYPDDYWGQGTQVTVSS | high polyreactivity
31 | QVQLVESGGGLVQAGGSLRLSCAASGFTFSGNALGWYRQARGKERELVAAISVGGGRTYYADSVKGRFTISRDNAKNTVYLQMNSLKPEDTAVYYCARYTRRSETWRYDYWGQGTQVTVSS | high polyreactivity
32 | QVQLVESGGGLVQAGGSLRLSCAASGFTFSGYDMGWYRQAPGKERELVAGISSGGVSTTYADSVKGRFTISRDNAKNTVYLQMNSLKPEDTAVYYCSTSGPQYYSRNFDYWGQGTQVTVSS | low polyreactivity
33 | QVQLVESGGGLVQAGGSLRLSCAASGFTFSHYAMGWYRQAPGKERELVAAISRRGSSTYYADSVKGRFTISRDNAKNTVYLQMNSLKPEDTAVYYCNVERLTGVWYYQRPSQDGYWGQGTQVTVSS | high polyreactivity
34 | QVQLVESGGGLVQAGGSLRLSCAASGFTFSKYAMGWYLQAPGKERELVAAISRRGGSTYYADSVKGRFTISRDNAKNTVYLQMNSLKPEDTAVYYCAARYSVGTGYGYWGQGTQVTVSS | high polyreactivity
35 | QVQLVESGGGLVQAGGSLRLSCAASGFTFSKYGMGWYRQAPGKERELVAAISSGGSTHYADSVKGRFTISRDNAKNTVYLQMNILKPADTAVYYCNASSKFAKPQRYYWGQGTQVTVSS | low polyreactivity
36 | QVQLVESGGGLVQAGGSLRLSCAASGFTFSLYAMGWYRQAPGKERELVASIDSDGVSTYYADSVKGRFTISRDNAKNTVYLQMNSLKPEDTAVYYCAADLWWGYISGPVRGRGYYWGQGTQVTVSS | low polyreactivity
37 | QVQLVESGGGLVQAGGSLRLSCAASGFTFSLYAMGWYRQAPGKERELVASISRSGGSTYYADSVKGRFTISRDNAKNTVYLQMNSLKPEDTAVYYCAARWRPYKYDSWGQGTQVTVSS | high polyreactivity
38 | QVQLVESGGGLVQAGGSLRLSCAASGFTFSNYTMGWYRQAPGKERELVAAIRSSGGRTYYADSVKGRFTISRDNAKNTVYLQMDSLKPEDTAVYYCNAEYRTDGGYWVQGTQVTVSS | low polyreactivity
39 | QVQLVESGGGLVQAGGSLRLSCAASGFTFSPNAMRWYRQAPGKERELVAAIDWSGDRTYYADSVKGRFTISRDNAKNTVYLQMNSLKPEDTAVYYCAADIRDPGVPMDYWGQGTQVTVSS | low polyreactivity
40 | QVQLVESGGGLVQAGGSLRLSCAASGFTFSRYAMGWYRPAPGKERELVAAITSSGGSTYYADSVKGRFTISRDNAKNTVYLQMNSLKPEDTAVYYCAAGKYTASNGYGYWGQGTQVTVSS | high polyreactivity
41 | QVQLVESGGGLVQAGGSLRLSCAASGFTFSSNAMGWYRQAPGKEREFVAAISFNSTSTYYADSVKGRFKISRDNAKNTVYLQMNSLKPEDTAVYYCAADVPRVQSEPEYDYWGQGTQVTVSS | low polyreactivity
42 | QVQLVESGGGLVQAGGSLRLSCAASGFTFSSYAMGWYRQAPGKERELDAAITRNGGSTYYADSVKGRFTISRDNAKNTDYLQMNSLNPEYTAVYNCAAQYPRQRYGYYWPYYKYYYWGHGTQVTVSS | high polyreactivity
43 | QVQLVESGGGLVQAGGSLRLSCAASGFTFSSYAMGWYRQAPGKERELVAAISGSGDRTRYADSVKGRFTISRDNAKNTVYLQMNSLKPEDTAVYYCAAKSPGSQTAMDYWGQGTQVTVSS | high polyreactivity
